Source: publication PMC3581401 (The Journal of Biological Chemistry, 2013)
Where two headings read alike, the source gives them in different places.

Columns and labels:
[1] = molecular target: ICAM-1 domains 1 to 5 fused to human IgG1 Fc (human) (UniProt P05362); test: SPR
[2] = molecular target: ICAM-1 domains 1 to 5, Fc tag removed (human) (UniProt P05362); test: AUC
[3] = molecular target: ICAM-1 domains 1 and 2 (human, UniProt P05362 28-212); test: SAXS
[4] = molecular target: T1, ICAM-1 domains 1 to 5 fused to human IgG1 Fc (human, UniProt P05362 28-485); test: SPR
T1 sequence (P05362 28-485): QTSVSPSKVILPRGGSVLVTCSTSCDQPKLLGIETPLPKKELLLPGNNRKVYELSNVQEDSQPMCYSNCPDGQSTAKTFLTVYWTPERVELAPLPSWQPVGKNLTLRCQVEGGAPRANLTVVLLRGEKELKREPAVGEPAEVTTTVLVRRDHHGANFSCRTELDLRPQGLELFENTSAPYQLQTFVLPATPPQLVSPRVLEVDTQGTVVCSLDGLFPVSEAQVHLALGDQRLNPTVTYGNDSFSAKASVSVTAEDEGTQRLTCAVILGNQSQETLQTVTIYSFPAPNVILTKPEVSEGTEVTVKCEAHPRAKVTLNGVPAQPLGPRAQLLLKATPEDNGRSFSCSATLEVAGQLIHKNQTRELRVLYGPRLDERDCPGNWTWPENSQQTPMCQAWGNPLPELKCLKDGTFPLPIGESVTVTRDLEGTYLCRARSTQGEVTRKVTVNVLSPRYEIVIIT

[5] = molecular target: the molecule itself; test: AUC
[6] = molecular target: ICAM-1 domains 1 to 5, Fc tag removed (human, UniProt P05362 28-485); test: AUC
Chain of ICAM-1 domains 1 to 5, Fc tag removed (P05362 28-485): as above

[7] = molecular target: T1, ICAM-1 domains 1 to 5 fused to human …; test: SPR; remark: listed apart in the source
[8] = molecular target: T1, ICAM-1 domains 1 to 5 fused to human …; test: SPR; remark: listed apart in the source

Chain of ICAM-1 domains 1 to 5 fused to human IgG1 Fc (human) (P05362 28-485): as above
Chain of ICAM-1 domains 1 to 5, Fc tag removed (human) (P05362 28-485): as above
Chain of ICAM-1 domains 1 and 2 (P05362 28-212): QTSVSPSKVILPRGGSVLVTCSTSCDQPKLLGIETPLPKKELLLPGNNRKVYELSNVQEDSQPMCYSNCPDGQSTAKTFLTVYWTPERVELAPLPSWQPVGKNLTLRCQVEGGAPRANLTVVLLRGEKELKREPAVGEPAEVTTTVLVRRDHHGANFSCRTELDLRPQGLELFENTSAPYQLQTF

Molecule | Kd [1] [nM] | koff [1] [s⁻¹] | kon [1] [M⁻¹ s⁻¹] | stoichiometry N [1] | also measured
IT4VAR16 DBLβ domain (domain or fragment) | 51.1 | 0.00208 | 41000 |  | 
IT4VAR31 DBLβ domain (domain or fragment) | 144 | 0.00145 |  |  | 
IT4VAR41 DBLβ domain (domain or fragment) |  | 0.00831 |  | 1.09 | 
IT4VAR13 ectodomain (PfEMP1 from the var13 gene of the P. falciparum IT4 isolate), A3R6S0 1-2691 |  |  |  | 1 | stoichiometry N [2]: 1
IT4VAR27 DBLβ domain (domain or fragment) | 6.5 | 0.00842 | 130000 |  | 
IT4VAR13 DBLβ domain (domain or fragment, Plasmodium falciparum (IT4 isolate), UniProt A3R6S0 811-1201, looked up) ACTGKDGNNERFKIGTEWKIGEKVETTDTDAYIPPRRQHMCTSNLENLNVSWVTEDGKAIHSLLGDVQLAAKMDADEIIKRYKKHNTLTDPIQQKDQESICRAVRYSFADLGDIIRGRDLWEHGDQTKLQGHLQIIFGKIKEEIKKKHPGINGNDKYKGDEKNNPPYKQLREDWWEANRHQVWRAMQCELKNLKKSNGDCHYNSRGTPLDDYIPQRLRWMVEWAEWFCKMQSQEYDKLMKQCSQCMSKGGDCRKGDVNCTSCEQACEEYKKKIKKWEKQWNKIKDKYEELYLQAKIAFAGTSFGGGDRDYQQMVHFFKELQKVTGDTTLGDTTSPYSTAAGYIHQEGHVDECTEQTQFCKNRNGNTASGKEDDNYTFKDPPPKYANACKCD |  |  |  |  | stoichiometry N [3]: 1; Kd [4]: 2.6 nM; koff [4]: 0.0009 s⁻¹; kon [4]: 350000 M⁻¹ s⁻¹; stoichiometry N [5]: 2; stoichiometry N [6]: 1; Kd [7]: 2.8 nM; kon [8]: 35000 M⁻¹ s⁻¹; stoichiometry N [8]: 1.16
